Residue numbers refer to the chain shown, from its start. Blank lines part the entries; values can stand above or below the binder they belong to.
Tests used:
[1] = molecular target: T1, human CD3 (delta/epsilon heterodimer) (human, UniProt P07766 23-126; P04234 22-105); assay: SPR 37 C; CD3 delta/epsilon on anti-His chip, bispecific analyte; CD3 variant 2B5v598
T1 construct: captured on an anti-His chip, so it carries a His tag; also called huCD3

human B7-H4 on cells = molecular target: T2, human B7-H4 on cells (human, UniProt Q7Z7D3 25-282); assay: cell-based or functional assay; on T cell mediated tumor cell killing, MDA-MB-468: unit not given here
T2 sequence (looked up): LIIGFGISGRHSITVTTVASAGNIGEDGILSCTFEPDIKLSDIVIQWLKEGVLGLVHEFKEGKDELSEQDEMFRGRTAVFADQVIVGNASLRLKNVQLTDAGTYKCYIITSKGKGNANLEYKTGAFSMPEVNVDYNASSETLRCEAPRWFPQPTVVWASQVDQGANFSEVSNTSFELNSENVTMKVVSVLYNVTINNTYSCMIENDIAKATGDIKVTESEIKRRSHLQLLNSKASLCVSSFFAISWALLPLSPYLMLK

[2] = molecular target: T3, human B7-H4 on human tumor cell lines (human, UniProt Q7Z7D3 25-282); assay: cell-based or functional assay
T3 sequence (looked up): T2 sequence (looked up)

[3] = molecular target: T1, human CD3 (delta/epsilon heterodimer); assay: SPR 37 C; CD3 delta/epsilon on anti-His chip, bispecific analyte; CD3 variant 2B5c707
[4] = molecular target: T4, human B7-H4 extracellular domain (human, UniProt Q7Z7D3 29-258); assay: SPR 37 C; IgG1 on anti-hFc chip, ECD analyte;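 further: antibodies captured, then B7-H4 ECD injected at five 3-fold dilutions from 300 nM, 65 s association and 600 s dissociation, fitted to a 1:1 Langmuir model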
T4 construct: Soluble ECD used as SPR analyte; also called huB7-H4 ECD; huB7-H4
T4 sequence: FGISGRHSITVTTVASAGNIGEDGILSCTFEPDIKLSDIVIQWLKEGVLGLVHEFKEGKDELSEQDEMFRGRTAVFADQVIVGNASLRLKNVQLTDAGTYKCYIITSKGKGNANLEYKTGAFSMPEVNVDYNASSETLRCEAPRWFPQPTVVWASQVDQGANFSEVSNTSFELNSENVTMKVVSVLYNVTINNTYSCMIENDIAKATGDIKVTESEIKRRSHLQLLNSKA

[5] = molecular target: T5, cyno B7-H4 extracellular domain (cyno, UniProt Q7Z7D3 29-258 (human entry)); assay: SPR 37 C; IgG1 on anti-hFc chip, ECD analyte
T5 construct: Soluble ECD used as SPR analyte; also called cyB7-H4 ECD; cyB7-H4
T5 sequence: T4 sequence with L49I

[6] = molecular target: T6, mouse B7-H4 extracellular domain (mouse, UniProt Q7TSP5 29-258); assay: SPR 37 C; IgG1 on anti-hFc chip, ECD analyte
T6 construct: Soluble ECD used as SPR analyte; also called muB7-H4 ECD; muB7-H4
T6 sequence: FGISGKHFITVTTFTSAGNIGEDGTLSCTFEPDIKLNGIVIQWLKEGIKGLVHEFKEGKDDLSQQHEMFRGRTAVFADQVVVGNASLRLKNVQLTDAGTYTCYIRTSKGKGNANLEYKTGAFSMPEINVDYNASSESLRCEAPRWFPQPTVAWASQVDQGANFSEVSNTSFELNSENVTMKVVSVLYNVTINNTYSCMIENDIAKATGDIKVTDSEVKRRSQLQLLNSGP

T1 sequence (P07766 23-126, stated change not applied, chain 1 of 2): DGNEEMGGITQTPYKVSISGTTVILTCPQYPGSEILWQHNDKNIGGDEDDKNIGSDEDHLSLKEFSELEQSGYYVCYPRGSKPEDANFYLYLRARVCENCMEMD
T1 sequence (P04234 22-105, stated change not applied, chain 2 of 2): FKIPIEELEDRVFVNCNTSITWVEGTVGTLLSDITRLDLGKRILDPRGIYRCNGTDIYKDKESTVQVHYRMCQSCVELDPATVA

B1: B7-H4xCD3 bispecific antibody 0087 (bispecific antibody, IgG2)
heavy 1: QVQLQQWGAGLLKPSETLSLTCAVYGGSFSGYYWNWIRQPPGKGLEWIGEINHSGSTKYNPSLKSRVTISGDTSKNQFSLKLNSVTAADTAVYYCVRGLYNWNVDSWGQGTLVTVSSASTKGPSVFPLAPCSRSTSESTAALGCLVKDYFPEPVTVSWNSGALTSGVHTFPAVLQSSGLYSLSSVVTVPSSNFGTQTYTCNVDHKPSNTKVDKTVERKCEVECPECPAPPVAGPSVFLFPPKPKDTLMISRTPEVTCVVVAVSHEDPEVQFNWYVDGVEVHNAKTKPREEQFNSTFRVVSVLTVVHQDWLNGKEYKCKVSNKGLPSSIEKTISKTKGQPREPQVYTLPPSREEMTKNQVSLTCEVKGFYPSDIAVEWESNGQPENNYKTTPPMLDSDGSFFLYSKLTVDKSRWQQGNVFSCSVMHEALHNHYTQKSLSLSPG
light 1: DIQMTQSPSSLSASVGDRVTITCRASQGIRNDLGWYQQKPGKAPKRLIYVASSLQSGVPSRFSGSGSGTEFTLTISSLQPEDFATYYCLQHNSYPYTFGQGTKLEIKRTVAAPSVFIFPPSDEQLKSGTASVVCLLNNFYPREAKVQWKVDNALQSGNSQESVTEQDSKDSTYSLSSTLTLSKADYEKHKVYACEVTHQGLSSPVTKSFNRGEC
heavy 2: EVQLVESGGGLVQPGGSLRLSCAASGFTFSDYYMTWVRQAPGKGLEWVAFIRNQDRGYTSDHQPSVKGRFTISRDNAKNSLYLQMNSLRAEDTAVYYCARDRPSYYVLDYWGQGTTVTVSSASTKGPSVFPLAPCSRSTSESTAALGCLVKDYFPEPVTVSWNSGALTSGVHTFPAVLQSSGLYSLSSVVTVPSSNFGTQTYTCNVDHKPSNTKVDKTVERKCRVRCPRCPAPPVAGPSVFLFPPKPKDTLMISRTPEVTCVVVAVSHEDPEVQFNWYVDGVEVHNAKTKPREEQFNSTFRVVSVLTVVHQDWLNGKEYKCKVSNKGLPSSIEKTISKTKGQPREPQVYTLPPSREEMTKNQVSLTCLVKGFYPSDIAVEWESNGQPENNYKTTPPMLDSDGSFFLYSRLTVDKSRWQQGNVFSCSVMHEALHNHYTQKSLSLSPG
light 2: DIQMTQSPSSLSASVGDRVTITCTSDQSLFNVRSGKNYLAWYQQKPGKAPKLLIYWASDRESGVPSRFSGSGSGTDFTLTISSLQPEDFATYYCKQSYDLFTFGGGTKVEIKRTVAAPSVFIFPPSDEQLKSGTASVVCLLNNFYPREAKVQWKVDNALQSGNSQESVTEQDSKDSTYSLSSTLTLSKADYEKHKVYACEVTHQGLSSPVTKSFNRGEC
notes: Chains 1-2: B7-H4 arm; chains 3-4: CD3 arm; IgG2; also called CD3 variant 2B5v598
Kd [1]: 124 nM
koff [1]: 0.0254 s⁻¹
kon [1]: 205000 M⁻¹ s⁻¹
T cell mediated tumor cell killing EC50, HCC1954-Luc (human B7-H4 on cells): 57 nM
T cell mediated tumor cell killing, MDA-MB-468 (human B7-H4 on cells): 109

B2: B7-H4xCD3 bispecific antibody 1167 (bispecific antibody, IgG2)
heavy 1: EVQLLESGGGLVQPGGSLRLSCAASGFTFSSYAMSWVRQAPGKGLEWVSAISGGGGSTYYADSVKGRFTISRDNSKNTLYLQMNSLRAEDTAVYYCARDIQWYGESTLFDYWGQGTLVTVSSASTKGPSVFPLAPCSRSTSESTAALGCLVKDYFPEPVTVSWNSGALTSGVHTFPAVLQSSGLYSLSSVVTVPSSNFGTQTYTCNVDHKPSNTKVDKTVERKCEVECPECPAPPVAGPSVFLFPPKPKDTLMISRTPEVTCVVVAVSHEDPEVQFNWYVDGVEVHNAKTKPREEQFNSTFRVVSVLTVVHQDWLNGKEYKCKVSNKGLPSSIEKTISKTKGQPREPQVYTLPPSREEMTKNQVSLTCEVKGFYPSDIAVEWESNGQPENNYKTTPPMLDSDGSFFLYSKLTVDKSRWQQGNVFSCSVMHEALHNHYTQKSLSLSPGK
light 1: DIQMTQSPSSLSASVGDRVTITCRASQSTRSHLAWYQQKPGKAPKLLIYKASSLEGGVPSRFSGSGSGTDFTLTISSLQPEDFATYYCQQYGSYSRTFGQGTKVEIKRTVAAPSVFIFPPSDEQLKSGTASVVCLLNNFYPREAKVQWKVDNALQSGNSQESVTEQDSKDSTYSLSSTLTLSKADYEKHKVYACEVTHQGLSSPVTKSFNRGEC
heavy 2: EVQLVESGGGLVQPGGSLRLSCAASGFTFSDYYMTWVRQAPGKGLEWVAFIRNQARGYTSDHNPSVKGRFTISRDNAKNSLYLQMNSLRAEDTAVYYCARDRPSYYVLDYWGQGTTVTVSSASTKGPSVFPLAPCSRSTSESTAALGCLVKDYFPEPVTVSWNSGALTSGVHTFPAVLQSSGLYSLSSVVTVPSSNFGTQTYTCNVDHKPSNTKVDKTVERKCRVRCPRCPAPPVAGPSVFLFPPKPKDTLMISRTPEVTCVVVAVSHEDPEVQFNWYVDGVEVHNAKTKPREEQFNSTFRVVSVLTVVHQDWLNGKEYKCKVSNKGLPSSIEKTISKTKGQPREPQVYTLPPSREEMTKNQVSLTCLVKGFYPSDIAVEWESNGQPENNYKTTPPMLDSDGSFFLYSRLTVDKSRWQQGNVFSCSVMHEALHNHYTQKSLSLSPGK
light 2: B1 light 2 with D26S, G35Q, D59T
EC50 (nM) of Antibody 1167 in inducing redirected T cell killing in vitro, HCC1954 cells (B7-H4 density 20039 per cell) [2]: 0.8 nM
EC50 (nM) of Antibody 1167 in inducing redirected T cell killing in vitro, MDA-MB-453 cells (B7-H4 density 1198 per cell) [2]: 8.44 nM
EC50 (nM) of Antibody 1167 in inducing redirected T cell killing in vitro, MDA-MB-468 cells (B7-H4 density 83936 per cell) [2]: 0.4 nM
EC50 (nM) of Antibody 1167 in inducing redirected T cell killing in vitro, MX1 cells (B7-H4 density 108684 per cell) [2]: 0.062 nM
EC50 (nM) of Antibody 1167 in inducing redirected T cell killing in vitro, T47D cells (B7-H4 density 6133 per cell) [2]: 0.54 nM

More lines, main results first:

Kd [3]: 134 nM
koff [3]: 0.0689 s⁻¹
kon [3]: 511000 M⁻¹ s⁻¹
B3: B7-H4xCD3 bispecific antibody 0088 (bispecific antibody, IgG2)
heavy 1: B1 heavy 1
light 1: B1 light 1
heavy 2: B1 heavy 2 with D55A, Q63N, P103H
light 2: B1 light 2 with D26S, G35Q, D59T, D99Y
notes: Chains 1-2: B7-H4 arm; chains 3-4: CD3 arm; IgG2; also called CD3 variant 2B5c707
T cell mediated tumor cell killing EC50, HCC1954-Luc (human B7-H4 on cells): 140 nM
T cell mediated tumor cell killing, MDA-MB-468 (human B7-H4 on cells): 655

Kd [4]: 12.1 nM
koff [4]: 0.00565 s⁻¹
kon [4]: 467000 M⁻¹ s⁻¹
Kd [5]: 30.7 nM
koff [5]: 0.00424 s⁻¹
kon [5]: 139000 M⁻¹ s⁻¹
Kd [6]: 883 nM
koff [6]: 0.126 s⁻¹
kon [6]: 143000 M⁻¹ s⁻¹
B4: B7-H4 antibody 0052 (antibody, human IgG1, kappa, V domains shown)
VH: QVQLQQWGAGLLKPSETLSLTCAVYGGSFSGYYWNWIRQPPGKGLEWIGEINHSGSTKYNPSLKSRVTISGDTSKNQFSLKLNSVTAADTAVYYCVRGLYNWNVDSWGQGTLVTVSS
VL: DIQMTQSPSSLSASVGDRVTITCRASQGIRNDLGWYQQKPGKAPKRLIYVASSLQSGVPSRFSGSGSGTEFTLTISSLQPEDFATYYCLQHNSYPYTFGQGTKLEIKR
notes: IgG1 mAb format; parental; also called 28D10

Source: patent US20220017622A1 (Pfizer, published 2022)
